# Experimental data published in paper PMC4918383.
# Assays:
# [1] = target: actin filaments (UniProt P68135)
# [2] = target: actin filaments (UniProt P68135); remark: listed apart in the source
# [3] = target: actin filaments (UniProt P68135); remark: listed apart in the source
# human β-cardiac myosin motor domain::GFP chimera, sequence (P12883 1-787, change not shown): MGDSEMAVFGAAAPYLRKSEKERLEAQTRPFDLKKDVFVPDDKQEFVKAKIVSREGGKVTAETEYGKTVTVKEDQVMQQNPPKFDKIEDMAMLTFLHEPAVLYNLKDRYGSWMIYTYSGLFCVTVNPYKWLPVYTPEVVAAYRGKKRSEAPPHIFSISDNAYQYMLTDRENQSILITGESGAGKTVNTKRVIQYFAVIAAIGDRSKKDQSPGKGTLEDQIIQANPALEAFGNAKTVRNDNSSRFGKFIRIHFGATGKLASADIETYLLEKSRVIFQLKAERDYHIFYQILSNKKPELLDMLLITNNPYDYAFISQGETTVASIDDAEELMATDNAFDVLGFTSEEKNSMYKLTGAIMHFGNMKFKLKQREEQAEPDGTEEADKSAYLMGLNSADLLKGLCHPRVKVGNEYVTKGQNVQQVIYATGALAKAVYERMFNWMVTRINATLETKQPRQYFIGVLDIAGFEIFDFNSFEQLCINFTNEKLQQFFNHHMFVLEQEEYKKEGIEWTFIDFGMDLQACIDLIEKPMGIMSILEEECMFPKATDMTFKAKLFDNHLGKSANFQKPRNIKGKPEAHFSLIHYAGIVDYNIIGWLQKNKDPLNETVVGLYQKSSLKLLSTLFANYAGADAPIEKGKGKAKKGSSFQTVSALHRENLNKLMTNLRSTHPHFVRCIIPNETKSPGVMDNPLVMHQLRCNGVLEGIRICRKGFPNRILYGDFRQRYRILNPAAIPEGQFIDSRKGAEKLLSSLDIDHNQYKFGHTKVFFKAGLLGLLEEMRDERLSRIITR
# human β-cardiac heavy meromyosin, sequence (P12883 1-1138): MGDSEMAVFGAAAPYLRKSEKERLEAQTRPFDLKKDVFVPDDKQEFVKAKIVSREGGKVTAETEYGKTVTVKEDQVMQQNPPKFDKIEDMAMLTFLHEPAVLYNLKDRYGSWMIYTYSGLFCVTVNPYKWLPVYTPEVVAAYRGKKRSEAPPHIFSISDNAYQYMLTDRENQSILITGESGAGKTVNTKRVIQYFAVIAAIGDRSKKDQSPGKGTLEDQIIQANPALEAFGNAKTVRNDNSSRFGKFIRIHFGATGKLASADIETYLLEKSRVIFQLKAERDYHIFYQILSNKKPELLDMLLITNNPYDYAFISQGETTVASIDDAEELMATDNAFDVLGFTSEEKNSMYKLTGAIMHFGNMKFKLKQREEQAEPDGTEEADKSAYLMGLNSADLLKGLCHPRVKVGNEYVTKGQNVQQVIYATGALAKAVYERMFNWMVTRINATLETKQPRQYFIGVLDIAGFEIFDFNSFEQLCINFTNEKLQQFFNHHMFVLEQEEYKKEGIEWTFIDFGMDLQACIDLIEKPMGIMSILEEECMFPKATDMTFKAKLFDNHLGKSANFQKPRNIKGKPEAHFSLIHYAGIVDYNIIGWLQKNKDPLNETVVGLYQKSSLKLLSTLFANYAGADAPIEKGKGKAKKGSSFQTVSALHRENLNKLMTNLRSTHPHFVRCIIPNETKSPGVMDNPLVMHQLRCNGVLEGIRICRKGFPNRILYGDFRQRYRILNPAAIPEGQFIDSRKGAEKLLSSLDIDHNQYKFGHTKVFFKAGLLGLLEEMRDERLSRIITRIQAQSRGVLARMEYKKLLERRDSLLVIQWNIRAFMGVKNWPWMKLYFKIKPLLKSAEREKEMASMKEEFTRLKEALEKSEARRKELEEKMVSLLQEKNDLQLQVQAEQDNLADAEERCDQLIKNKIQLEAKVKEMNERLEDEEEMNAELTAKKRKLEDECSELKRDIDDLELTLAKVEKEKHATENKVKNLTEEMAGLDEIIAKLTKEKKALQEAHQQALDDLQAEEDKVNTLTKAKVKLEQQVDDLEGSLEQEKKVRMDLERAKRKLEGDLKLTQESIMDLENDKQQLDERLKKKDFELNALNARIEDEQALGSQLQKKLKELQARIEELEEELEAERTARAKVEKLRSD
"actin filament velocity in the in vitro motility assay (cHMM bound directly to nitrocellulose, 32 °C), without OM and with OM titrated from 0.42 to 12.5 μM; slowed 15–20-fold by OM [1]","sliding actin filament velocity in the in vitro motility assay (cMD held by anti-GFP, 32 °C), without OM and with OM titrated from 0.42 to 12.5 μM; slowed 15–20-fold by OM [2]","K ATPase for actin activation of the steady-state ATPase of the cMD (0.06 μM cMD, 0–100 μM actin), with 100 μM OM [3]","K ATPase for actin activation of the steady-state ATPase of the cMD (0.06 μM cMD, 0–100 μM actin), without OM [3]",Substance
0.8 μm s^−1,–,–,–,human β-cardiac heavy meromyosin (from UniProt P12883 1-1138) (domain or fragment)
–,0.8 μm s^−1,5.4 µM,22.5 µM,human β-cardiac myosin motor domain::GFP chimera (from UniProt P12883 1-787) (domain or fragment)
